experiment: soluble on expression in E. coli; label from the status in PepcDB or PDB records

Soluble on expression in E. coli, soluble:
MGVQTHVLELTSSVSAEKIFQGFVIDVDTVLPKAAPGAYKSVEIKGDGGPGTLKIITLPDGGPITTMTLRIDGVNKEALTFDYSVIDGDILLGFIESIENHVVLVPTADGGSICKTTAIFHTKGDAVVPEENIKYANEQNTALFKALEAYLIAN
MHDANIRVAIAGAGGRMGRQLIQAALALEGVQLGAALEREGSSLLGSDAGELAGAGKTGVTVQSSLDAVKDDFDVFIDFTRPEGTLNHLAFCRQHGKGMVIGTTGFDEAGKQAIRDAAADIAIVFAANFSVGVNVMLKLLEKAAKVMGDYTDIEIIEAHHRHKVDAPSGTALAMGEAIAHALDKDLKDCAVYSREGHTGERVPGTIGFATVRAGDIVGEHTAMFADIGERLEITHKASSRMTFANGAVRSALWLSGKESGLFDMRDVLDLNNL
MHFGKHNVDFMLPSLRKEWEDPEKIVSQIPIQPNFDIVDLGCGPGFFTLPLSETTDGKVYAIDASQEMIDALKQRIDGRSNIVTIKAPAEKIPLPDLSADLVFIANAYHDFDDRDEVLSEIYRILRAGRFLVDIDWKKEETTRGPPIDIRIDKKEAMLEIASHNFDIESEIEAGPHHYGLIFKKILEHHHHHH
MHGKLIGVGVGPGDSELLTLRAVNVLRSVPVICAPRSSSERESIALSIVEDILTERRDGCRILDPVFPMTDDRDELESHWDSAARMVAAELEDGRDVAFITLGDPSIYSTFSYLQQRIEDMGFKTEMVPGVTSFTACAATAGRTLVEGDEILLVVPRVDDRFERVLRDVDACVIMKTSRHGRRAMEVVESDPRGKDVVSVANCSMDDEVVERGFASGGGYLATTLVRFREQS
MHHHHHHGRIGIPRERLTNETRVAATPKTVEQLLKLGFTVAVESGAGQLASFDDKAFVQAGAEIVEGNSVWQSEIILKVNAPLDDEIALLNPGTTLVSFIWPAQNPELMQKLAERNVTVMAMDSVPRISRAQSLDALSSMANIAGYRAIVEAAHEFGRFFTGQITAAGKVPPAKVMVIGAGVAGLAAIGAANSLGAIVRAFDTRPEVKEQVQSMGAEFLELDFKEEAGSGDGYAKVMSDAFIKAEMELFAAQAKEVDIIVTTALIPGKPAPKLITREMVDSMKAGSVIVDLAAQNGGNCEYTVPGEIFTTENGVKVIGYTDLPGRLPTQSSQLYGTNLVNLLKLLCKEKDGNITVDFDDVVIRGVTVIRAGEITWPAPPIQVSAQPQAAQKAAPEVKTEEK
MHHHHHHHHIGGDFAVVKAKKSLERRGFGVKRGDKIYLHPLEVVYLQIKGIESFGELEDVLSWAESRMEDFSTYYFVYEDLRDRGNKVKIQGEFLLTKKPYLPISERKTIRMEEIAEKARNFDELRLAVVDEESEITYFRVYEPDMMGEQKEELPEIAGVLSDEYVITKQTEIFSRYFYGSEKGDLVTLSLIESLYLLDLGKLNLLNADREELVKRAREVERNFDRRYEVYRNLKERGFVVKTGFKFGSEFRVYRKVESVDDLPHSEYLVDIADSREIRLIDLARAVRLAQNVRKRMVFAYGKNYLCFERVKV
MHHHHHHMKEIATEYSFIKYTELELDDNGSIKQLSIPNKYNVIYAIAINDELVYIGKTKNLRKRINYYRTAINRKDKTSDSTKSALIHSALKEGSKVEFYARQCFNLSMTNELGTMTIATIDLEAPLFIKLFNPPWNIQHKKK
MHHHHHHSSGVDLGTENLYFQSMAQADIALIGLAVMGQNLILNMNDHGFVVCAFNRTVSKVDDFLANEAKGTKVVGAQSLKEMVSKLKKPRRIILLVKAGQAVDDFIEKLVPLLDTGDIIIDGGNSEYRDTTRRCRDLKAKGILFVGSGVSGGEEGARYGPSLMPGGNKEAWPHIKTIFQGIAAKVGTGEPCCDWVGDEGAGHFVKMVHNGIEYGDMQLICEAYHLMKDVLGMAQDEMAQAFEDWNKTELDSFLIEITANILKFQDTDGKHLLPKIRDSAGQKGTGKWTAISALEYGVPVTLIGEAVFARCLSSLKDERIQASKKLKGPQKFQFDGDKKSFLEDIRKALYASKIISYAQGFMLLRQAATEFGWTLNYGGIALMWRGGCIIRSVFLGKIKDAFDRNPELQNLLLDDFFKSAVENCQDSWRRAVSTGVQAGIPMPCFTTALSFYDGYRHEMLPASLIQAQRDYFGAHTYELLAKPGQFIHTNWTGHGGTVSSSSYNA
MHHHHHHSSGVDLGTENLYFQSMEESGATFHTYLNHLIQGLQKEAKEKFKGWVTCSSTDNTDLAFKKVGDGNPLKLWKASVEVEAPPSVVLNRVLRERHLWDEDFVQWKVVETLDRQTEIYQYVLNSMAPHPSRDFVVLRTWKTDLPKGMCTLVSLSVEHEEAQLLGGVRAVVMDSQYLIEPCGSGKSRLTHICRIDLKGHSPEWYSKGFGHLCAAEVARIRNSFQPLIAEGPETKI
MHHHHHHSSGVDLGTENLYFQSMNNVEKPDNDEDESEVPSLPLGLTGAFEDTSFASLCNLVNENTLKAIKEMGFTNMTEIQHKSIRPLLEGRDLLAAAKTGSGKTLAFLIPAVELIVKLRFMPRNGTGVLILSPTRELAMQTFGVLKELMTHHVHTYGLIMGGSNRSAEAQKLGNGINIIVATPGRLLDHMQNTPGFMYKNLQCLVIDEADRILDVGFEEELKQIIKLLPTRRQTMLFSATQTRKVEDLARISLKKEPLYVG
MHHHHHHSSGVDLGTENLYFQSMTLESMNPQVKAVEYAVRGPIVLKAGEIELELQRGIKKPFTEVIRANIGDAQAMGQQPITFLRQVMALCTYPNLLDSPSFPEDAKKRARRILQACGGNSLGSYSASQGVNCIREDVAAYITRRDGGVPADPDNIYLTTGASDGISTILKILVSGGGKSRTGVMIPIPQYPLYSAVISELDAIQVNYYLDEENCWALNVNELRRAVQEAKDHCDPKVLCIINPGNPTGQVQSRKCIEDVIHFAWEEKLFLLADEVYQDNVYSPDCRFHSFKKVLYEMGPEYSSNVELASFHSTSKGYMGECGYRGGYMEVINLHPEIKGQLVKLLSVRLCPPVSGQAAMDIVVNPPVAGEESFEQFSREKESVLGNLAKKAKLTEDLFNQVPGIHCNPLQGAMYAFPRIFIPAKAVEAAQAHQMAPDMFYCMKLLEETGICVVPGSGFGQREGTYHFRMTILPPVEKLKTVLQKVKDFHINFLEKYA
MHHHHHHSSGVDLGTENLYFQSMVDATRVPMDERFRTLKKKLEEGMVFTEYEQIPKKKANGIFSTAALPENAERSRIREVVPYEENRVELIPTKENNTGYINASHIKVVVGGAEWHYIATQGPLPHTCHDFWQMVWEQGVNVIAMVTAEEEGGRTKSHRYWPKLGSKHSSATYGKFKVTTKFRTDSVCYATTGLKVKHLLSGQERTVWHLQYTDWPDHGCPEDVQGFLSYLEEIQSVRRHTNSMLEGTKNRHPPIVVHCSAGVGRTGVLILSELMIYCLEHNEKVEVPMMLRLLREQRMFMIQTIAQYKFVYQVLIQFLQNSRLI

Soluble on expression in E. coli, not soluble:
MGTSFRQYFKIVPALTEELKREAYRVRHSVYCEDLQFESSRSDGFEIDEYDAHSLHLLIRSINNDTFIGCTRIIRPSSNSNDRRLPFEKTCAQTLDRSIIDPSRLPADKIGEVSRLAVIAAFRRRKGEKNHPINISEEDFSTGPMMRFPYIPLSLYIGTIELARIHDIRVLFMLTEERLASHFSRLGAQLEPIGAPVEHRGLRFPSMVEINSIISNMRPIFRPLYQAIAEDIKAELEKKNH
MGVMNKGDSVEKCYMCDAEGNTKEHVPPKCIFPEAKDVPSGDNYKKNLITVRSCEKHNTAKSKDDVYLLFFLAANVVSNDLAQTQFGTKIMRAVNRTPHVFAQFAKKNTPVTLKGENGELIHTAAIEIDRARFDAAIEHISHALHYHKYGETFIGDIQVITSGLVDLSSIDSVEVNDRIQNFGQMVDELLADVEPEGDNPEVFTYKVLKTDEPHQVIIQMNFYGGFKIVSIMKYS
MGVYPPSEDSFLIIEYASCSGKAIEIGCGTGIVSICFLKRGCDIEAVDISDLAVECAKDNASRNGLTLKVYRSDLFSGVSGTYDTILFNAPYIPVEGEDASWSGGRNLEVVSRFLGQAREHLSASGQIYIVLSDLTDNEGMFRMMGYDYFIIKKISFEFEAIVLYKLTLKALEHHHHHH
MGWPVISGDYIVGDPKSPVAVVTLASDYQSLNLKNYAICGTCFTENFGIEKVIVNVLSNPRISCLVVCGQESDHFAGQSLLALAENGVSAFGGSKRIIGSEGVIPYLDDIPATAISRFLREIEVIDLVGTTDPAVIQQAIDSCSGKERGEAPELSMPEINEHSWKKYEPEVKKNIMSKIKK
MHAYLHCLSHSPLVGYVDPAQEVLDEVNGVIASARERIAAFSPELVVLFAPDHYNGFFYDVMPPFCLGVGATAIGDFGSAAGELPVPVELAEACAHAVMKSGIDLAVSYCMQVDHGFAQPLEFLLGGLDKVPVLPVFINGVATPLPGFQRTRMLGEAIGRFTSTLNKRVLFLGSGGLSHQPPVPELAKADAHMRDRLLGSGKDLPASERELRQQRVISAAEKFVEDQRTLHPLNPIWDNQFMTLLEQGRIQELDAVSNEELSAIAGKSTHEIKTWVAAFAAISAFGNWRSEGRYYRPIPEWIAGFGSLSARTEN
MHDRSYTLDDVTVAMGTYNEAAAIDTVLTDIADATDDRARVVCVDGSSDRTPEIAREHGATVIEQEPQGYGVAVAAALDAADTPVVITTDCDNTYPMERIPAFLARINEGYDVVSGDRLYWGADTMPAFNRLGNAAFAAITSLLVGERVHDTTTGMRAYRAPVIDAIDWTQNTGLSAELLIRPLCRNYDVIEEPIGYADRLGDTKLDPLEGGAEILGSILKVCAEERLPLEHHHHHH
MHENMKDSLKRPLQDLRISVIDRCNFRCTYCMPAEVFGPDYAFLQEECLLTFDEIERLARLFISMGVNKIRLTGGEPLLRKDLPKLIARLAKLEGLKDIGLTTNGIHLAKQAKALKEAGLKRVNISLDAIEDRVFQKINGRHVSTKPVLKGIEAAKEAGLEVKVNMVVKKGMNDSQILPMAQYFKEQEIQLRFIEFMDVGSTNGWNFEQVVTKEQLIEKINRVYPIEPVKPRYFGEVAKLYRYVGNDAEVGFITSVSESFCSSCTRARISADGKFYTCLFGEKGTDLRSLLRENISDASLLKILQHTWEFRTDRYSDERTAESTNKRQKVEMSYIGG
MHEYYYIYWYLSEFLYAWLMSTLSRADGSQMAEERIMEEQQKGRSSKKTKKKKKVRPLSREITMSQAYQNMCAGMFKTMVAFDMDGKVRKPKFELDSEQVRYEHRFAPFNSVMTPPPVHYLQFKEMSDLNKYSPPPQSPELYVAASKHFQQAKMILENIPNPDHEVNRILKVAKPNFVVMKLLAGGHKKESKVPPEFDFSAHKYFPVVKLVLEHHHHHH
MHFHVNNVVTSSQIDDVLVKICTGPLFDNGTPFITYGCVLHLSSERGIIRTFDEKLCLFELKDLNMDGVVDMTDVLPLGCTLKFFATRQNHHTFTASNVSPICEPAAQLIFLNSTEMNVITPDFTSTGSSNHYSVEKERFAYVRILELFQQQAVLSLPLSSMISELGKFGEDDVSQYIGISDEERGMFIKRRTHLFTVGWNDLVTLQSPDFYQAIVLILSYILCNGGVTSTENVFEFYQTDNVPLSVRQRTGSDMNSFREIIDFHSWAFTLSSHGTYVSAKRNLPHFDYMSFFEGIVCTATPQRHQKSKLLKHPPGLQIPLLNTRAQALGQASMHQQQQEHISNPYQGYQPYLHREDMTNGMKKPTGTLIDGANQKHCFGMQVSSPDRNAFEKPSVFGHTWGDVIAFNKNSANFSRGMQSKRRYNLSSMFRNLKYSGFRSSIDSTSSSDDSQSLDNCSTSGVNNMLIGCGPQMY
MHGKRIALCASRKLDEMTTLIEKQGGTAIIRPAQGTVFSKGSELGEEMRTVIAMRPDWIVFTTGIGFEALLEAADREGMAAQWHRTIKEANVAARGYKTVTALKQIGVTPVAVSEDGTTKGLIAALYGHDFADKNVVVQLYGDTAPALKQFFLEQGALYTELLPYRHIAPDEETLATLYKEIVGREVDAVCFTSAMQVRFFFSFAREKKEIAPLLDAFRTDVVACAVGKVTKEALEEEGVDRVIAPEHERMGAMIVTLARYFGA

Reference: the DeepSol protein solubility set
